Results from paper PMC11461821, “Structure of a Rhs effector clade domain provides mechanistic insights into type VI secretion system toxin delivery” (Nature Communications, 2024).

T1: Tse15 central Rhs domain (residues 335-1395) (Acinetobacter baumannii (strain …, UniProt A0A5K6CSR3 335-1395))
T1 construct: Tse15, A. baumannii AB307-0294, central Rhs domain, residues 335-1395; also called Rhs cage; β-cocoon
T1 sequence: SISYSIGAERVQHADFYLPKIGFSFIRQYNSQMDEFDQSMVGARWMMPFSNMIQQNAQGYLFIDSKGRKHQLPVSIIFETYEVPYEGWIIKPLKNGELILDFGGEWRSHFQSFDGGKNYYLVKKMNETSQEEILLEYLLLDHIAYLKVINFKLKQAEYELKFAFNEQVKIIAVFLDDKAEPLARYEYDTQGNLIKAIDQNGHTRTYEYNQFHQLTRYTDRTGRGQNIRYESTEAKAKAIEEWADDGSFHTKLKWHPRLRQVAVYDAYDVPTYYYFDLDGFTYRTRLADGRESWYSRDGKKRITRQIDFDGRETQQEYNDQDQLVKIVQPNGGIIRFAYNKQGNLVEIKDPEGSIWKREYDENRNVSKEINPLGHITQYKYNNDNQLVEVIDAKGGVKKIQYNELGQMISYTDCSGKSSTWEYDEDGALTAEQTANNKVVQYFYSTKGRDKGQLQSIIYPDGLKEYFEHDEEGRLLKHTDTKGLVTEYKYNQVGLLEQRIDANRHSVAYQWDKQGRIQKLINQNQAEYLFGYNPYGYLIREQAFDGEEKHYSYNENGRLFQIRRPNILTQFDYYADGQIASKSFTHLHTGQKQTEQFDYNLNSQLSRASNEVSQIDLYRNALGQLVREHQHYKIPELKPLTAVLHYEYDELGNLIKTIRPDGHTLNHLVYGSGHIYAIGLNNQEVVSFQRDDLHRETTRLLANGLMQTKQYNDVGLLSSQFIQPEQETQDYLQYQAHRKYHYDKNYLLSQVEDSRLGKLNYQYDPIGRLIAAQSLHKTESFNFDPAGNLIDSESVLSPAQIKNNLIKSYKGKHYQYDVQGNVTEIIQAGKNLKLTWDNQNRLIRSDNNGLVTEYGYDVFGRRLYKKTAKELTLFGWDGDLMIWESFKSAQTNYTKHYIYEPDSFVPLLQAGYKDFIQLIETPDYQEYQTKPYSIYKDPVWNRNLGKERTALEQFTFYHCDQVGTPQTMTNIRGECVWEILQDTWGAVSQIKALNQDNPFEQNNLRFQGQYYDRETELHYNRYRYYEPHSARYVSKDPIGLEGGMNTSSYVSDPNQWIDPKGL

B1: Tse15 N-terminal clade domain (residues 1-334) (domain or fragment)
chain: MAKENTQQKEIKRQPAVELAVFNLNSVTDVADLQMIASQVQLYLQVCGNTTLEQIKSKANITTVANIFALTGSVLDLMLYATDKKTGDAAVQRGALLAANLIGLFSEPNNEAHARMALRPMFGLMAECLYRENGKIKETDIKRLGLHLNAMIAGDLENFLKETQAKLSSLLISATTLGVTILQSMATPATGINAGITTAAGASAEKRDPKLKFTNWAVPLIDLLGKPSQANLTPKIQPNITSRLQQEATQAIAALSQTLQQQANAGQKYTLAWLLQETLKAIQALENKGNASVPINQTGEYERHTKGDTLEFVSLQADALNAPPCEGADSQSGK
notes: Tse15, A. baumannii AB307-0294, N-terminal clade domain, residues 1-334; Residues 14-333 are modelled in the structure; also called N-terminal clade-specific domain; not shown: StrepTag-II, N-terminal, kept

What was measured:
[1] = biological target: B1; test: pull-down + SEC; nickel affinity (HisTrap HP) from E. coli lysate by the His tag that only the CTD carries, then analytical size-exclusion (Superdex200 10/300 GL Increase, 50 mM Hepes pH 8.0, 0.3 M NaCl); fragments identified by SDS-PAGE, Western blot, peptide fingerprinting and N-terminal sequencing; conditions: partners not purified
[2] = biological target: T1, Tse15 central Rhs domain (residues …); test: as above; conditions: partners not purified
[3] = biological target: T1, Tse15 central Rhs domain (residues …); test: cryo-EM structure; single particle cryo-EM of purified protein, 3 mg/mL, UltrAuFoil grids; Tse15 at 200 kV (Talos Arctica), Tse15NN at 300 kV (Titan Krios); conditions: both partners purified

Row | Binder | binding result [1] | binding result [2] | binding result [3]
1 | Tse15 toxic C-terminal domain (residues 1396-1590) (domain or fragment, Tse15, A. baumannii AB307-0294, toxic CTD, residues 1396-1590; also called CTD; toxin domain; not shown: His6, C-terminal, kept) NSFNYGEMFGIPASAQSGLAYQGQRNYECYAETGELCKIKVPPLFDYVACSGGGLGIGVGFVKNQWTGEYYISGSKDSLLIPVAKSVAQNKQFSAKDLAGASCVGGNIHNIPSYTKTTMTMGEITNEFVSGASVTVGGGAYGAVANVVVPLVSKSSPVKGTWASELGVGTPGFNVGVSGTVSVDTILDAVKPSKK | binds | binds | 
2 | B1 |  |  | binds
